Data taken from paper PMC9482650, “Quantitative fragmentomics allow affinity mapping of interactomes” (Nature Communications, 2022).

T1: MPP7, Q5T2T1
T1 sequence (Q5T2T1 134-230, limits assumed, looked up): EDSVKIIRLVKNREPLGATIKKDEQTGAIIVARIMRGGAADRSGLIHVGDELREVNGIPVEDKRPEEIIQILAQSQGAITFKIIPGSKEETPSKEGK

T2: PARD3B_1, Q8TEW8
T2 sequence (Q8TEW8 196-299, limits assumed, looked up): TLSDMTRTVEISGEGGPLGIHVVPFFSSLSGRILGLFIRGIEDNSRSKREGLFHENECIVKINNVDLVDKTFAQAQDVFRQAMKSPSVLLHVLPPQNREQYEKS

T3: SNTA1, Q13424
T3 sequence (Q13424 82-180, limits assumed, looked up): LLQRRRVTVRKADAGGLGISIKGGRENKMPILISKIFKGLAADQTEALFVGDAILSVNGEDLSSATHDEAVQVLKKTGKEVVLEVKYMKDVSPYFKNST

T4: HTRA4, P83105
T4 sequence (P83105 378-476, limits assumed, looked up): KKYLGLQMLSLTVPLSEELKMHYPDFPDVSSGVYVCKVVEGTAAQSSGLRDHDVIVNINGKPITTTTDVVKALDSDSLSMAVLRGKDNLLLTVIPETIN

T5: HTRA3, P83110
T5 sequence (P83110 354-453, limits assumed, looked up): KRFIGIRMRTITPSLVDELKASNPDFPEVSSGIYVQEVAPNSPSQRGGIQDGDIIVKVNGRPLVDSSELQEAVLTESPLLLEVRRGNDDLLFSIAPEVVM

T6: SYNJ2BP, P57105
T6 sequence (P57105 8-110, limits assumed, looked up): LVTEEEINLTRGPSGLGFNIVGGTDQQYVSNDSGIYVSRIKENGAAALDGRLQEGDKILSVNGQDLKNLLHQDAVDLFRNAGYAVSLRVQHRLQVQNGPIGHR

T7: SNTG2, Q9NY99
T7 sequence (Q9NY99 68-166, limits assumed, looked up): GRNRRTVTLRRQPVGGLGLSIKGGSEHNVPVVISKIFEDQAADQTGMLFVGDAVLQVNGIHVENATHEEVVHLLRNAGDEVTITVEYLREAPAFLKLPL

T8: CARD11, Q9BXL7
T8 sequence (Q9BXL7 662-765, limits assumed, looked up): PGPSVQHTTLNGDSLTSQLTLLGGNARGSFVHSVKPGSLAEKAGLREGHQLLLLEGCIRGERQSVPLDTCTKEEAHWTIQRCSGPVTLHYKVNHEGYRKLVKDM

T9: LNX2_3, Q8N448
T9 sequence (Q8N448 463-564, limits assumed, looked up): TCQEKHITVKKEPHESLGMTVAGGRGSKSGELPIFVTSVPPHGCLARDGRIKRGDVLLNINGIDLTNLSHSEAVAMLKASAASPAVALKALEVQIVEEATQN

T10: SNTG1, Q9NSN8
T10 sequence (Q9NSN8 52-150, limits assumed, looked up): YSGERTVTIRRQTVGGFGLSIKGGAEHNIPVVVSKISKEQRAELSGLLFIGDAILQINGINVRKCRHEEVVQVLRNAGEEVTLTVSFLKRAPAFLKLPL

T11: PCLO, Q9Y6V0
T11 sequence (Q9Y6V0 4491-4600, limits assumed, looked up): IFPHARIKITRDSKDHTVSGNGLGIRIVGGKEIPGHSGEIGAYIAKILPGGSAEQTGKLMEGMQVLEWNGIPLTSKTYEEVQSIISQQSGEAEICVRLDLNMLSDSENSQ


Tests used:
Experiment in all cases: holdup assay
Set-up in all cases: key: below the threshold = too weak to quantify, mostly under pKd 3.1 to 4
Details in all cases: plain residues with an end cap or a label only (N-terminal biotin on a linker: ado-ado)
IL16_1, Q14005 = molecular target: IL16_1, Q14005
DLG2_3, Q15700 = molecular target: DLG2_3, Q15700
NHERF4_1, Q86UT5-2 = molecular target: NHERF4_1, Q86UT5-2
Inadl_9, Q8NI35 = molecular target: Inadl_9, Q8NI35
MPP7, Q5T2T1 = molecular target: T1, MPP7, Q5T2T1
SCRIB_2, Q14160 = molecular target: SCRIB_2, Q14160
PARD3B_1, Q8TEW8 = molecular target: T2, PARD3B_1, Q8TEW8
NHERF2_2, Q15599 = molecular target: NHERF2_2, Q15599
TJP1_2, Q07157 = molecular target: TJP1_2, Q07157
ARHGEF12, Q9NZN5-2 = molecular target: ARHGEF12, Q9NZN5-2
PARD3_3, Q8TEW0 = molecular target: PARD3_3, Q8TEW0
SNTA1, Q13424 = molecular target: T3, SNTA1, Q13424
HTRA4, P83105 = molecular target: T4, HTRA4, P83105
AHNAK1, Q09666 = molecular target: AHNAK1, Q09666
HTRA3, P83110 = molecular target: T5, HTRA3, P83110
SYNJ2BP, P57105 = molecular target: T6, SYNJ2BP, P57105
SNTG2, Q9NY99 = molecular target: T7, SNTG2, Q9NY99
CARD11, Q9BXL7 = molecular target: T8, CARD11, Q9BXL7
LNX2_3, Q8N448 = molecular target: T9, LNX2_3, Q8N448
Inadl_4, Q8NI35 = molecular target: Inadl_4, Q8NI35
SNTG1, Q9NSN8 = molecular target: T10, SNTG1, Q9NSN8
MAST1, Q9Y2H9 = molecular target: MAST1, Q9Y2H9
MAGI2_5, Q86UL8 = molecular target: MAGI2_5, Q86UL8
PCLO, Q9Y6V0 = molecular target: T11, PCLO, Q9Y6V0
Inadl_3, Q8NI35 = molecular target: Inadl_3, Q8NI35
NOS1, P29475 = molecular target: NOS1, P29475
Chain of NOS1, P29475 (P29475 9-101): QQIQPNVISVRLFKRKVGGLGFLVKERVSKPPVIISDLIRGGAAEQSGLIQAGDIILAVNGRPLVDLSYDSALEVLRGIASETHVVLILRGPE

Chain of SCRIB_2, Q14160 (Q14160 857-960): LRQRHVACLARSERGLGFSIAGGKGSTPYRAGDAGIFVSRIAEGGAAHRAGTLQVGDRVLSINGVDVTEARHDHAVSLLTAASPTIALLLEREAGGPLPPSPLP
Chain of PARD3_3, Q8TEW0 (Q8TEW0 582-685): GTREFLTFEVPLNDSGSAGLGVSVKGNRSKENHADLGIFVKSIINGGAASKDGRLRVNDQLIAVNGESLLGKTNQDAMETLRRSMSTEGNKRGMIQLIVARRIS
Chain of Inadl_3, Q8NI35 (Q8NI35 359-469): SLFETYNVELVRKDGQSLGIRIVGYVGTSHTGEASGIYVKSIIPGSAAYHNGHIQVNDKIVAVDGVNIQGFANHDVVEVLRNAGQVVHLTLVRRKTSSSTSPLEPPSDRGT
Chain of NHERF4_1, Q86UT5-2 (Q86UT5 other isoform, or with tags, fused parts or gaps): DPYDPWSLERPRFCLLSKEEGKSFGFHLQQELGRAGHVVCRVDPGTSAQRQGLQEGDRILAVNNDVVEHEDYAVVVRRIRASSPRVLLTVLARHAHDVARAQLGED
Chain of Inadl_4, Q8NI35 (Q8NI35 547-651): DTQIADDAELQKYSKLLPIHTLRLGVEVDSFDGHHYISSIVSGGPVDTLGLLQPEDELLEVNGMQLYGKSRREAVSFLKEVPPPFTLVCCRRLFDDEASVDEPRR
Chain of TJP1_2, Q07157 (Q07157 181-274): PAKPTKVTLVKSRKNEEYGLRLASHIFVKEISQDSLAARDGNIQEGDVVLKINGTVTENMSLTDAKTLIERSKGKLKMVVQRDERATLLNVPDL
Chain of IL16_1, Q14005 (Q14005 210-306): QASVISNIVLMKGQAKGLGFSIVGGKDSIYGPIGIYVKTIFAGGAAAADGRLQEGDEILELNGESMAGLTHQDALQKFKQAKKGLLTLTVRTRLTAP
Chain of ARHGEF12, Q9NZN5-2 (Q9NZN5 other isoform, or with tags, fused parts or gaps): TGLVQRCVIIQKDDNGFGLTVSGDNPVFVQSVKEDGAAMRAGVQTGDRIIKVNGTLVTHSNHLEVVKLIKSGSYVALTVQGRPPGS
Chain of MAST1, Q9Y2H9 (Q9Y2H9 962-1065): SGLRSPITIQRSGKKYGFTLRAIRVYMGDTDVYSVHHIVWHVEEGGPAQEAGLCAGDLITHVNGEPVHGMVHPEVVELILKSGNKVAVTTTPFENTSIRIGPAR
Chain of AHNAK1, Q09666 (Q09666 4-100): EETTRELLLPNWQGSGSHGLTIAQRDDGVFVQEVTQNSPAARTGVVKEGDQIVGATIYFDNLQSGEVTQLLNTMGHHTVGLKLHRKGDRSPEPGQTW
Chain of Inadl_9, Q8NI35 (Q8NI35 1530-1615): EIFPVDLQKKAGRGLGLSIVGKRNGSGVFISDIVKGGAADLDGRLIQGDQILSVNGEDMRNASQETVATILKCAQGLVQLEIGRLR
Chain of MAGI2_5, Q86UL8 (Q86UL8 915-1017): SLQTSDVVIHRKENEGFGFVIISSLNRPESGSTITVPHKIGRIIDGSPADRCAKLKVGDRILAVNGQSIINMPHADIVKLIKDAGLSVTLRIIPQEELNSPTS
Chain of NHERF2_2, Q15599 (Q15599 142-238): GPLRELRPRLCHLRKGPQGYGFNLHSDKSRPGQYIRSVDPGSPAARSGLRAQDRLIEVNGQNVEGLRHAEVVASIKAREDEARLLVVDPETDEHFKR

| Binder | pKd (IL16_1, Q14005) | pKd (DLG2_3, Q15700) | pKd (NHERF4_1, Q86UT5-2) | pKd (Inadl_9, Q8NI35) | pKd (MPP7, Q5T2T1) | pKd (SCRIB_2, Q14160) | pKd (PARD3B_1, Q8TEW8) | pKd (NHERF2_2, Q15599) | pKd (TJP1_2, Q07157) | pKd (ARHGEF12, Q9NZN5-2) | pKd (PARD3_3, Q8TEW0) | pKd (SNTA1, Q13424) | pKd (HTRA4, P83105) | pKd (AHNAK1, Q09666) | pKd (HTRA3, P83110) | pKd (SYNJ2BP, P57105) | pKd (SNTG2, Q9NY99) | pKd (CARD11, Q9BXL7) | pKd (LNX2_3, Q8N448) | pKd (Inadl_4, Q8NI35) | also measured |
| --- | --- | --- | --- | --- | --- | --- | --- | --- | --- | --- | --- | --- | --- | --- | --- | --- | --- | --- | --- | --- | --- |
| LVEEEEPMNL [HDAC7, Q8WUI4] | below the threshold | below the threshold | 3.57 | below the threshold | below the threshold | below the threshold | below the threshold | 3.5 | below the threshold | below the threshold | 4.23 | below the threshold | 3.94 | below the threshold | below the threshold | below the threshold | below the threshold | below the threshold | below the threshold | below the threshold | pKd (SNTG1, Q9NSN8): below the threshold; pKd (MAST1, Q9Y2H9): 3.61; pKd (MAGI2_5, Q86UL8): below the threshold; pKd (PCLO, Q9Y6V0): below the threshold; pKd (Inadl_3, Q8NI35): below the threshold; pKd (NOS1, P29475): below the threshold |
| TKDKVQETQI [LRRC4, Q9HBW1] | 3.54 | 4.16 | below the threshold | below the threshold | below the threshold | 4.41 | 3.76 | 4.11 | 3.64 | 4.57 | 3.81 | 4.88 | below the threshold | below the threshold | below the threshold | 4.75 | 5.1 | below the threshold | below the threshold | below the threshold | pKd (SNTG1, Q9NSN8): 4.97; pKd (MAST1, Q9Y2H9): 4.28; pKd (MAGI2_5, Q86UL8): 3.96; pKd (PCLO, Q9Y6V0): below the threshold; pKd (Inadl_3, Q8NI35): 3.56; pKd (NOS1, P29475): 4.02 |
| ADEMICITTL [CACNA1D, Q01668] | below the threshold | 3.81 | 4.52 | below the threshold | below the threshold | 3.88 | 4.84 | 4.63 | below the threshold | 6.18 | 4.38 | 4.42 | 4.36 | below the threshold | below the threshold | 4.24 | 4.47 | below the threshold | below the threshold | below the threshold | pKd (SNTG1, Q9NSN8): 4.32; pKd (MAST1, Q9Y2H9): 5.06; pKd (MAGI2_5, Q86UL8): 4.76; pKd (PCLO, Q9Y6V0): below the threshold; pKd (Inadl_3, Q8NI35): 4.53; pKd (NOS1, P29475): 3.58 |
| MLPANYVEAI [NEB, P20929] | below the threshold | 3.56 | below the threshold | below the threshold | below the threshold | below the threshold | below the threshold | below the threshold | below the threshold | below the threshold | below the threshold | below the threshold | 3.67 | below the threshold | below the threshold | below the threshold | below the threshold | below the threshold | below the threshold | below the threshold | pKd (SNTG1, Q9NSN8): below the threshold; pKd (MAST1, Q9Y2H9): below the threshold; pKd (MAGI2_5, Q86UL8): below the threshold; pKd (PCLO, Q9Y6V0): below the threshold; pKd (Inadl_3, Q8NI35): below the threshold; pKd (NOS1, P29475): 3.52 |
